Results on seven molecules are retold here after publication PMC4821239, “Molecular architecture of the Dam1 complex–microtubule interaction” (Open Biology, 2016).

First the molecules themselves.
B3: Duo1 (natural protein, budding yeast, UniProt P53168 1-247, looked up)
chain: MSEQSQLDDSTIDKLIPQIFNEMRSNLNNTTNKFPKSTGGGASDNISANSNSIRSFNSITTQSLLKESESLDKITAMIKNVTAALKNNLPVYVNQVHEVCKSTNSILDSWINIHSQAGYIHKLMSDQTYLKLINDRLHNENVNTNDEDGSTLHNVIALKKKEILDLRQKLENRKGEKDAAPAKPPNQGLNPRYGVQSGRRPVPSAGISNNGRVRKTHVPASKRPSGIPRVTNRWTKPTASSSRKMFR
notes: Duo1, subunit of the budding yeast Dam1 complex; Subunit inside the recombinant 10-subunit complex; also called Duo1 subunit; source: expressed and purified as part of the Dam1 complex as described [3]
B4: Spc19 (natural protein, budding yeast, UniProt Q03954 1-165, looked up)
chain: MTDALEQSVLALEGTVSVLKDSVESLKCANEPSTNLASTMLQTKRVFRLVPEYDVERSKLDLIEEVEPLVRTLGDKLRKSMGRMQRELDTLQQTYELNDLRLKKNISMDDDDALNSPDMGQEYEGRDADDVVMMASSTNEELEELKKLKEKKKQLENKLEILKQK
notes: Spc19, subunit of the budding yeast Dam1 complex; Subunit inside the recombinant 10-subunit complex; also called Sp19; source: expressed and purified as part of the Dam1 complex as described [3]
B5: Ask1 (natural protein, budding yeast, UniProt P35734 1-292, looked up)
chain: MDSASKEETLEKLDQEITVNLQKIDSNLSFCFHKITQDIIPHVATYSEICERIMDSTEWLGTMFQETGLVNLQANAAAPVGNAPVKSLVSNNVGIFPTSAEEASRQSQTDNGPNEADSAVHVNRDVHSMFNNDSIDDFHTANITSTGQILKLPDSSDEDTGSEAVPSREQTDLTGEGHGGADDEQDESTIQRQSRKRKISLLLQQQYGSSSSMVPSPIVPNKMRKQLAHEEHINNDGDNDDENSNNIESSPLKQGHHHPKGQADDNNEGPDEEESTKEVPKPGTIIHFSTNR
notes: Ask1, subunit of the budding yeast Dam1 complex; Subunit inside the recombinant 10-subunit complex; source: expressed and purified as part of the Dam1 complex as described [3]
B6: Spc34 (natural protein, budding yeast, UniProt P36131 1-295, looked up)
chain: MGESLDRCIDDINRAVDSMSTLYFKPPGIFHNAILQGASNKASIRKDITRLIKDCNHDEAYLLFKVNPEKQSVSRRDGKEGVFDYVIKRDTDMKRNRRLGRPGEKPIIHVPKEVYLNKDRLDLNNKRRRTATTSGGGLNGFIFDTDLIGSSVISNSSSGTFKALSAVFKDDPQIQRLLYALENGSVLMEEESNNQRRKTIFVEDFPTDLILKVMAEVTDLWPLTEFKQDYDQLYHNYEQLSSKLRFIKKEVLLQDDRLKTMSQYHPSSSHDVAKIIRKEKDEIRRLEMEIANLQE
notes: Spc34, subunit of the budding yeast Dam1 complex; Subunit inside the recombinant 10-subunit complex; source: expressed and purified as part of the Dam1 complex as described [3]

Series [1] has as its target T1, Dam1 (budding yeast, UniProt P53267 1-343).
T1 construct: Dam1, subunit of the budding yeast Dam1 complex; Subunit inside the recombinant 10-subunit complex; also called Dam1 subunit; source: expressed and purified as part of the Dam1 complex as described [3]
T1 sequence (looked up): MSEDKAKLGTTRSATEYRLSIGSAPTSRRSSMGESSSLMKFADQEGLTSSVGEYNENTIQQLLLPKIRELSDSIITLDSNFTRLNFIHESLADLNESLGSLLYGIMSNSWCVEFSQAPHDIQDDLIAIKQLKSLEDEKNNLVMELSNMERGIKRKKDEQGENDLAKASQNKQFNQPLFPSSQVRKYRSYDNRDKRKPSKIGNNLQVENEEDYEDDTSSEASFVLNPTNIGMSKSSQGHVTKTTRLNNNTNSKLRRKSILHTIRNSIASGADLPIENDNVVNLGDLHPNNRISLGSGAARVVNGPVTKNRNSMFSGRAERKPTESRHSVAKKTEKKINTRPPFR
Kind of series: cross-linking; BS3, size-exclusion fraction of the Dam1 complex Duo1Δ184 eluting as the full complex, mass spectrometry. The following applies: both partners purified. A general note: SEC sorts molecules by how far they enter the pores of the column.

Series [2] deals with the molecule itself. Nature of the series: cross-linking; BS3, Dam1 complex at 0.05 mg/ml in solution; cross-linked species (approx. 110, 220 and 440 kDa) separated by SDS-PAGE, bands cut out, in-gel trypsin digestion, mass spectrometry.
Series [3] concerns the target B5. Kind of series: cross-linking; BS3, Dam1 complex at 0.3 mg/ml in BRB80, room temperature 40-60 min, digested in solution, mass spectrometry; some links may be between oligomerizing complexes. The following applies: both partners purified.
For series [4], the target named is B6. The series is described as above. The following applies: both partners purified.
Series [5] addresses T1, Dam1. Described as above. The following applies: both partners purified.
Series [6] deals with B3. Described as above. The following applies: both partners purified.
For series [7], the target named is B6. Nature of the series: cross-linking; BS3, Dam1 complex at 0.05 mg/ml in solution; cross-linked species (approx. 110, 220 and 440 kDa) separated by SDS-PAGE, bands cut out, in-gel trypsin digestion, mass spectrometry. The following applies: both partners purified.
Series [8] concerns the target B4. The description is as above. The following applies: both partners purified.
The target of series [9] is B5. Kind of series: cross-linking; EDC with Sulfo-NHS, Dam1 complex assembled on taxol-stabilized microtubules in BRB80, pellet washed, room temperature 1 h, digested in solution, mass spectrometry. The following applies: both partners purified.

B1: Duo1Δ184 (domain or fragment, budding yeast, UniProt P53168 1-183, looked up)
chain: MSEQSQLDDSTIDKLIPQIFNEMRSNLNNTTNKFPKSTGGGASDNISANSNSIRSFNSITTQSLLKESESLDKITAMIKNVTAALKNNLPVYVNQVHEVCKSTNSILDSWINIHSQAGYIHKLMSDQTYLKLINDRLHNENVNTNDEDGSTLHNVIALKKKEILDLRQKLENRKGEKDAAPAK
notes: Duo1, budding yeast; stop codon inserted at position 184; Subunit inside the Dam1 complex Duo1Δ184; also called Duo1 lacking its C terminus (Δ184); source: purified as part of the Dam1 complex Duo1Δ184 (Ni–NTA, Superose 6 size-exclusion chromatography)
In the case of B1, the binding result in [1] is “binds”.

B2: Dam1 complex (complex, budding yeast)
chain 1: MSEDKAKLGTTRSATEYRLSIGSAPTSRRSSMGESSSLMKFADQEGLTSSVGEYNENTIQQLLLPKIRELSDSIITLDSNFTRLNFIHESLADLNESLGSLLYGIMSNSWCVEFSQAPHDIQDDLIAIKQLKSLEDEKNNLVMELSNMERGIKRKKDEQGENDLAKASQNKQFNQPLFPSSQVRKYRSYDNRDKRKPSKIGNNLQVENEEDYEDDTSSEASFVLNPTNIGMSKSSQGHVTKTTRLNNNTNSKLRRKSILHTIRNSIASGADLPIENDNVVNLGDLHPNNRISLGSGAARVVNGPVTKNRNSMFSGRAERKPTESRHSVAKKTEKKINTRPPFR
chain 2: MSEQSQLDDSTIDKLIPQIFNEMRSNLNNTTNKFPKSTGGGASDNISANSNSIRSFNSITTQSLLKESESLDKITAMIKNVTAALKNNLPVYVNQVHEVCKSTNSILDSWINIHSQAGYIHKLMSDQTYLKLINDRLHNENVNTNDEDGSTLHNVIALKKKEILDLRQKLENRKGEKDAAPAKPPNQGLNPRYGVQSGRRPVPSAGISNNGRVRKTHVPASKRPSGIPRVTNRWTKPTASSSRKMFR
chain 3: MMASTSNDEEKLISTTDKYFIEQRNIVLQEINETMNSILNGLNGLNISLESSIAVGREFQSVSDLWKTLYDGLESLSDEAPIDEQPTLSQSKTK
chain 4: MDSIDEQIAIKRKELQSLQKITSLTDGLKIQLTELNEQIKEMGMNADSVAQLMNNWDSIINNISQASLGLLQYAEGDYEIGPWKDSKKKESEQSNETGLEAQENDKNDEDNDEDEDLVPLPETMVRIRVDGNE
chain 5: MEHNLSPLQQEVLDKYKQLSLDLKALDETIKELNYSQHRQQHSQQETVSPDEILQEMRDIEVKIGLVGTLLKGSVYSLILQRKQEQESLGSNSK
chain 6: MENPHEQVQANILSRIIGNVKRLNESVAILNQELVTINNRNKNLEIMGAICDNYHSSVQFNLEATNNKKPPL
chain 7: MNANKQRQYNQLAHELRELQTNLQETTKQLDIMSKQCNENLVGQLGKVHGSWLIGSYIYYMEQMLGKTQ
chain 8: MDSASKEETLEKLDQEITVNLQKIDSNLSFCFHKITQDIIPHVATYSEICERIMDSTEWLGTMFQETGLVNLQANAAAPVGNAPVKSLVSNNVGIFPTSAEEASRQSQTDNGPNEADSAVHVNRDVHSMFNNDSIDDFHTANITSTGQILKLPDSSDEDTGSEAVPSREQTDLTGEGHGGADDEQDESTIQRQSRKRKISLLLQQQYGSSSSMVPSPIVPNKMRKQLAHEEHINNDGDNDDENSNNIESSPLKQGHHHPKGQADDNNEGPDEEESTKEVPKPGTIIHFSTNR
chain 9: MTDALEQSVLALEGTVSVLKDSVESLKCANEPSTNLASTMLQTKRVFRLVPEYDVERSKLDLIEEVEPLVRTLGDKLRKSMGRMQRELDTLQQTYELNDLRLKKNISMDDDDALNSPDMGQEYEGRDADDVVMMASSTNEELEELKKLKEKKKQLENKLEILKQK
chain 10: MGESLDRCIDDINRAVDSMSTLYFKPPGIFHNAILQGASNKASIRKDITRLIKDCNHDEAYLLFKVNPEKQSVSRRDGKEGVFDYVIKRDTDMKRNRRLGRPGEKPIIHVPKEVYLNKDRLDLNNKRRRTATTSGGGLNGFIFDTDLIGSSVISNSSSGTFKALSAVFKDDPQIQRLLYALENGSVLMEEESNNQRRKTIFVEDFPTDLILKVMAEVTDLWPLTEFKQDYDQLYHNYEQLSSKLRFIKKEVLLQDDRLKTMSQYHPSSSHDVAKIIRKEKDEIRRLEMEIANLQE
notes: Dam1, budding yeast; Duo1, budding yeast; Dad1, budding yeast; Dad2, budding yeast; Dad3, budding yeast; Dad4, budding yeast; Hsk3, budding yeast; Ask1, budding yeast; Spc19, budding yeast; Spc34, budding yeast; 10-subunit complex; also called heterodecameric Dam1 complex; wild-type Dam1 complex; source: expressed and purified as described [3]; copies: + + + + + + + + +
Regarding B2, the stoichiometry N (commonly a count of units in the complex or per binding partner) in [2] is 2.
As for B3, the binding result in series [3], in [4] and in [5] was “binds” each time.
As to B4, the binding result in [3], in series [5], in series [6] and in series [7] was “binds” in each case.
For the molecule B5, the binding result in series [4] and in series [5] was “binds” throughout.
With B6, the binding result in series [5] is “binds”.

B7: Dad2 (natural protein, budding yeast, UniProt P36162 1-133, looked up)
chain: MDSIDEQIAIKRKELQSLQKITSLTDGLKIQLTELNEQIKEMGMNADSVAQLMNNWDSIINNISQASLGLLQYAEGDYEIGPWKDSKKKESEQSNETGLEAQENDKNDEDNDEDEDLVPLPETMVRIRVDGNE
notes: Dad2, subunit of the budding yeast Dam1 complex; Subunit inside the recombinant 10-subunit complex; source: expressed and purified as part of the Dam1 complex as described [3]
As for B7, the binding result in series [5], in [8] and in series [9] was “binds” throughout.
